What was measured:
Type in all cases: cell-based, human
[1] = test system: allergen-specific T cell lines; assay: Functional phenotype of allergen-specific T cell lines; conditions: SA-26E 0.085 μg/ml, alone or mixed with nDer p2 10 μg/ml
Experimental: Mononuclear cells from 10 atopic donors with sensitization towards Dermatophagoides pteronyssinus have been isolated by density gradient and 1×10^6 cells cultured in 2 ml complete medium plus 5% autologous serum in the presence of DP or nDer p2 allergens or their respective conjugates (DP-conj or nDer p2-conj) (all at 10 μg/ml) in 24 flat-bottomed plates (Costar). […] After 6 d incubation and addition of rIL-2 (Proleukin) (25 UI/ml), T cell blasts are further expanded by the addition of medium, fresh 5% autologous serum and 25 UI/ml rIL-2 every three days. After 15 d culture, T cell blasts from single cultures are collected, washed with sterile PBS, counted and used to assess allergen specificity, phenotype and function.
To assess allergen-specificity, 1×10^5 T cell blasts are cultured in 96 U-bottomed plates in 0.2 ml final volume in medium plus 5% autologous serum, 1×10^5 autologous irradiated (9000 R) mononuclear cells as APCs, DP or nDer p2 (10 μg/ml) and, after 3 d incubation, tritiated thymidine (3HTdR) (Amersham) is added. After further 16 hr incubation, single cultures are transferred on paper filters through the use of an Harvester apparatus (Tomtec) and radioactivity measured in a β-counter. […]

CRTH2 cells = assay: Phenotype of allergen-specific CRTH2 cells; conditions: allergen 10 μg/ml, PMA and ionomicin
Experimental: Mononuclear cells from peripheral blood (MNC) are isolated by density gradient (Ficoll-Hypaque) using buffy coats from Dermatophagoides pteronyssinus-sensitized donors (Servizio Immunotrasfusionale e terapie cellulari, Azienda Ospedaliero Universitaria Pediatrica A. Meyer, Firenze). 500×10^6 MNC are separated by the addition of 500 μl anti-CRTH2 monoclonal antibody for 20 min at room temperature, then extensively washed and incubated again with a secondary polyclonal antibody bound to iron microbeads and finally positively selected on a magnetic column (LS column). 10×10^6 cells are recovered by positive selection, extensively washed with sterile calcium and magnesium-free PBS buffer and cultured at the concentration 1×10^6/ml/well in complete medium plus 5% human AB serum in 24-flat bottomed plates. As stimulants, unconjugated allergens (DP or nDer p2) or conjugates (DP-conj or nDer p2-conj) (all at 10 μg/ml) have been used. Cultures have been incubated for 6 days at 37° C. in 5% CO2 humidified atmosphere and further expanded with rIL-2 25 UI/ml until 14 days when T cell blasts are collected, extensively washed, counted, adjusted at 1×10^6/ml concentration and polyclonally stimulated with PMA and ionomicin as already described to assess the intracellular production of IL-4 and IFN-gamma.

[2] = test system: allergen-specific T cell clones; assay: Functional phenotype of allergen-specific T cell clones; conditions: for Clonal Efficiency (%): T cell lines derived in the presence of the stimulus
Source text: For the functional analysis of T cell clones specific for nDer p2 and nDer p2-con j, T cell lines are initially derived from MNC of two atopic donors (G. E. and M. A.) affected by bronchial asthma and allergic rhinitis and sensitized to Dermatophagoides pteronyssinus, in the presence of nDer p2- or its respective conjugate nDer p2-conj. […] 28 allergen-specific T cell clones are obtained from T cell lines specific for nDer p2 from donor two and 37 from donor one whereas 28 clones are obtained from T cell lines derived in the presence of nDer p2-conj from both donors.
The allergen-specific clones obtained in the different experimental conditions have been then assessed for their ability to produce IL-4 ([…]) and IFN-gamma (pg/ml) in the culture supernatants after polyclonal stimulation with PMA and anti-CD3 monoclonal antibody.

Molecule	modification of the cellular phenotype of allergen-specific T cells (TH2 towards TH1/TH0) [1]	% of cells expressing IFN-gamma+ (CRTH2 cells; Donor #3, CRTH2 cells) [%]	% of cells expressing IL-4+ (CRTH2 cells; Donor #3, CRTH2 cells) [%]	% of cells expressing IL-4+ IFN-gamma+ (CRTH2 cells; Donor #3, CRTH2 cells) [%]	% of cells expressing IFN-gamma+ (CRTH2 cells; Donor #4, CRTH2 cells) [%]	% of cells expressing IL-4+ (CRTH2 cells; Donor #4, CRTH2 cells) [%]	% of cells expressing IL-4+ IFN-gamma+ (CRTH2 cells; Donor #4, CRTH2 cells) [%]	Clonal Efficiency (%) ([2]; Donor one)	Clonal Efficiency (%) ([2]; Donor two)	clones producing IL-4 alone ([2]; donor one, PMA and anti-CD3) [%]	clones producing IL-4 together with IFN-gamma (TH0 phenotype) ([2]; donor one, PMA and anti-CD3) [%]	clones able to produce IL-4 alone or together with IFN-gamma ([2]; donor two, PMA and anti-CD3) [%]
Nc1nc(SCCCC(=O)ON2C(=O)CCC2=O)nc2c1nc(O)n2Cc1ccccc1 [SA-26E, 4-(6-Amino-9-benzyl-8-hydroxy-9H-purin-2-ylsulfanyl)-butyric acid 2,5-dioxo-pyrrolidin-1-yl ester]	inactive											
nDer p2: purified natural allergen Der p2, major allergen from the house dust mite Dermatophagoides pteronyssinus (protein, UniProt P49278 18-146, looked up, natural purified, purified natural allergen Der p2, major allergen from the house dust mite Dermatophagoides pteronyssinus) Mite group 2 allergen Der p 2: DQVDVKDCANHEIKKVLVPGCHGSEPCIIHRGKPFQLEAVFEANQNTKTAKIEIKASIDGLEVDVPGIDPNACHYMKCPLVKGQQYDIKYTWNVPKIAPKSENVVVTVKVMGDDGVLACAIATHAKIRD		5.8	47.6	1.3	2.0	78.2	2.3	30	24	56.7	29.7	75
